From patent US20240263191

Biological target: KLF15 (hKLF15) (Homo sapiens) (UniProt Q9UIH9)
Experiment: cell_activity
Details: AAV8-GNAT1-hKLF15 subretinal in pig, 2x10^10 gc, 15 days; 38% repression of protein

Chain of KLF15 (hKLF15) (Homo sapiens) (Q9UIH9 whole entry): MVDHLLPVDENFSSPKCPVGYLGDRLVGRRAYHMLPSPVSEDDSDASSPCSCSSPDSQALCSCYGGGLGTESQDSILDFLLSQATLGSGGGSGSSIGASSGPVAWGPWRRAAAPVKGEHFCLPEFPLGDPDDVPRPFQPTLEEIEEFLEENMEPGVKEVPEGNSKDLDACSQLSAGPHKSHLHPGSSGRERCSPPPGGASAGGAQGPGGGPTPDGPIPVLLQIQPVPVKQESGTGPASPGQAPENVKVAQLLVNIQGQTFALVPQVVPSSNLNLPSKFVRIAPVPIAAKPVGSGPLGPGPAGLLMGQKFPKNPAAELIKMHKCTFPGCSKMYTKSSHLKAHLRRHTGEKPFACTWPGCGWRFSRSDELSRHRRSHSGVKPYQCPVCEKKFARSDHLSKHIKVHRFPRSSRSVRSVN

“endogenous porcine Rho promoter (hRHO-cis highly conserved)” gave an activity (% repression of Rho transcript) of 45.
